Source: US7235648B1, “Yeast cells engineered to produce pheromone system protein surrogates, and uses therefor” (Cadus Technologies, Inc., priority 1993, dated 2007)

T1: induced HL60 cells (Homo sapiens, UniProt P21730)
T1 construct: endogenous in cells; host or cells: induced HL60 cells
T1 sequence (P21730 1-350): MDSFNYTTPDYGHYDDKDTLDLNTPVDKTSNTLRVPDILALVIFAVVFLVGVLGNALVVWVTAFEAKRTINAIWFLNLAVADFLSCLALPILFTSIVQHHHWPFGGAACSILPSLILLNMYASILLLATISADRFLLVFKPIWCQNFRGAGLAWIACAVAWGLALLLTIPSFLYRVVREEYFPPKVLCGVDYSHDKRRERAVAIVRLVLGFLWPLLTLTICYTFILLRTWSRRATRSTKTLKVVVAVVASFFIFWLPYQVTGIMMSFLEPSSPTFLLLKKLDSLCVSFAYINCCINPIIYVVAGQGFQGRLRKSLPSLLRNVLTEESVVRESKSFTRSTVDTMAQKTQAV

T2: C5a receptor (Homo sapiens, UniProt P21730)
T2 sequence (P21730 1-350): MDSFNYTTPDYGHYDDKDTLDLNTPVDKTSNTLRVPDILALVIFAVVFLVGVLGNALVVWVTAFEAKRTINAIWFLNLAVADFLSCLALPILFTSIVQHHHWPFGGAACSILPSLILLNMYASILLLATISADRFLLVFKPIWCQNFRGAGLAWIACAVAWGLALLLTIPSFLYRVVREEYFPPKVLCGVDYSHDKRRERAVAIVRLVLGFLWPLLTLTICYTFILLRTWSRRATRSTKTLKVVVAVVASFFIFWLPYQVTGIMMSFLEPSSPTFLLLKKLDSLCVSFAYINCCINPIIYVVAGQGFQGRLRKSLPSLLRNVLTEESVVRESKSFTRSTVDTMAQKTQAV

T3: yeast Gβγ (Saccharomyces cerevisiae, UniProt P18851+P18852)
T3 construct: Endogenous Gβγ subunits will be provided by the yeast STE4 and STE18 loci; endogenous in cells; host or cells: S. cerevisiae gpa1 tester strains
T3 sequence (P18851 1-423): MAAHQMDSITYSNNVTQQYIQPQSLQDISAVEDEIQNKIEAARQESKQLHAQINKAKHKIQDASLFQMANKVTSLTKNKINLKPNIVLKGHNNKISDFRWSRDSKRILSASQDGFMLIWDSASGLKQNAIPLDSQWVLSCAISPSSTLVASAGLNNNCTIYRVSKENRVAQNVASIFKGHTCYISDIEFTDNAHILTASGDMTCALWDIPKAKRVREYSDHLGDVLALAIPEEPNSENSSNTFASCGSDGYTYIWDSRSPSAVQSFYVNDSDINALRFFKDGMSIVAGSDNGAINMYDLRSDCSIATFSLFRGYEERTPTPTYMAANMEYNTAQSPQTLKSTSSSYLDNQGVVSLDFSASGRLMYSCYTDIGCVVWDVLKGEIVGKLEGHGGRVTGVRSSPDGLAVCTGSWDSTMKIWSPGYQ
T3 sequence (P18852 1-107 limits assumed): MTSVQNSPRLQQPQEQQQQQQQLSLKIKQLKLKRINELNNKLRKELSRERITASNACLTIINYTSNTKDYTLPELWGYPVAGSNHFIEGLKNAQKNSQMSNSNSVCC


Legend:
[1] = biological target: T1, induced HL60 cells; assay: Competition with radiolabeled C5a for binding on induced HL60 cells; conditions: C5a expressed in yeast
[2] = biological target: T2, C5a receptor; design: host or cells: mammalian cells (not specified); conditions: mammalian cells; Boulay et al. 1991; read-out: binding constant of C5a to its receptor; cited from earlier work
[3] = biological target: T2, C5a receptor; assay: Autocrine yeast expressing human C5a receptor and human C5a, growth read-out (fus1-HIS3); assay type: cell-based; design: expressed in transfected cells; host or cells: S. cerevisiae CY455 / CY878 carrying GPA1(41)-Gαi2, plasmid Cadus 1303
Description: The strain used for this analysis, CY455 (MATαtbt1-1 ura3 leu2 trp1 his3 fus1-HIS3 can1 ste14::TRP1 ste3*1156), contains the following significant modifications. A pheromone inducible HIS3 gene, fus1-HIS3, is integrated at the FUS1 locus. A hybrid gene containing sequence encoding the first 41 amino acids of GPA1 (the yeast Gα subunit) fused to sequence encoding human Gαi2a (minus codons for the N-terminal 33 amino acids) replaces GPA1 at its normal chromosomal location. The yeast STE14 gene is disrupted to lower the basal level of signaling through the pheromone response pathway. The yeast a-factor receptor gene, STE3, is deleted. The last two modifications are probably not essential but appear to improve the signal-to-noise ratio. […]
Three colonies were picked from each transformation and grown overnight in media lacking leucine and uracil, at pH 6.8 with 25 mM PIPES (LEU^− URA^− pH6.8 with 25 mM PIPES). […] The optical density at 600 nm of a 1/20 dilution of these cultures was determined and the cultures were diluted into 25 mM PIPES pH 6.8 to a final OD600 of 0.2. […] For verification of pheromone pathway activation and quanti-fication of the stimulation, the activity of the fus1 promoter was determined colorometrically using a fus1-lacZ fusion in a similar set of strains. […]

[4] = biological target: T3, yeast Gβγ; assay: Coupling of Gα subunits and hybrids to yeast Gβγ: complementation of gpa1 growth arrest phenotype and fus1-HIS3 transcription; assay type: cell-based
Description: We have tested the hypothesis that there are switch region determinants involved in the association of Gα with Gβγ by constructing a series of hybrid Gα proteins encoding portions of GPA1 and GαS in different combinations (FIG. 11).
Preferably, levels of Gα and Gβγ subunits are balanced. For example, heterologous Gα subunits may be expressed from a low copy (CEN ARS) vector containing the endogenous yeast GPA1 promotor and the GPA1 3′ untranslated region. The minimum criterion, applied to a heterologous Gα subunit with respect to its ability to couple functionally to the yeast pheromone pathway, is that it complement a gpa1 genotype when expressed from the GPA1 promoter on low copy plasmids or from an integrated, single copy gene. In the work described in this application, all heterologous Gα subunits have been assayed in two biological systems.

[5] = biological target: T2, C5a receptor; assay: Coupling of the C5a receptor to Gα chimeras in yeast; assay type: cell-based; design: expressed in transfected cells; host or cells: S. cerevisiae CY455 / CY878 carrying GPA1(41)-Gαi2, plasmid Cadus 1303; conditions: GPA1 promoter; single copy integrated or low copy plasmid
Description: Coupling by chimeric Gα_proteins._The Gα chimeras described above were tested for the ability to couple a mammalian G protein-coupled receptor to the pheromone response pathway in yeast. Results obtained using GPA141-Gαi2 to couple the human C5a receptor to the pheromone response pathway in autocrine strains of yeast are disclosed in Example 10 above.
With this phenomenon, there is an increase in growth on selective media for strains containing heterologous receptor in the absence of ligand. It is possible that some receptor antagonists would decrease LIRMA. It has been noted (Milano, et al. 1994) that specific antagonists reduce LIRMA of the β2 adrenergic receptor when that receptor is overexpressed in transgenic mice.

Row | Molecule | competition for binding with radiolabeled C5a [1] | Kd [2] [nM] | growth on selective plates lacking histidine (pheromone pathway activation via C5a receptor) ([3]; CY455 R+L+ strain, pH 6.8, 1 mM aminotriazole) | aminotriazole concentration on which the R+L+ strain will grow ([3]; CY455 R+L+, highest concentration tested) | functional complementation of the growth arrest phenotype of gpa1 strains [4] | Result (coupling of the C5a receptor to Gα chimeras in yeast) [5]
1 | C5a: 74 amino acid polypeptide that derives from the fifth component of complement; anaphylatoxin (protein) TLQKKIEEIAAKYKHSVVKKCCYDGACVNNDETCEQRAARISLGPRCIKAFTECCVVASQLRANISHKDMQLGR | compete for binding | 1 | show growth on the selective plates | up to 5 mM |  | 
2 | GPA141-Gαi2: first 41 amino acids of GPA1 fused to human Gαi2 (protein) MGCTVSTQTIGDESDPFLQNKRANDVIEQSLQLEKQRDKNEVKLLLLGAGESGKSTIVKQMKIIHE |  |  |  |  | functionally complement | GPA141-Gαi2single copy, Good signal to noise ratio:
